Sequences and labels used below:
B1: Hairpin Ribozyme (parent)
chain: GUCCUCUUUCACGUGCGCGUGAAAGAGAGAAGUGAACCAGAGAAACACACGUUGUGGUAUAUUACCUGGUA

In this data set the parent is B1. In words: self-cleavage, relative activity (ratio to wild type); higher = more cleavage; co-transcriptional.
As for U33C G56A, the self-cleavage was 0.0589.
The same measure for U33C G56C: 0.167; for U33G U63G: 0.198; for G34A A36U: 0.832.
The same measure for G34A A36G: 1.19; for G34A A71C: 1.6.
Take G34C C65U: the self-cleavage stood at 1.04.
The same measure for G34C C65G: 1.07.
Consider U33A U52C, for which the self-cleavage worked out at 0.122.
With U33A U52G the figure was 0.111.
The same measure for G32U G40A: 0.122; for U33A G40C: 0.0171; for U33A C48U: 0.0718.
The same measure for U33A C48G: 0.123; for G32U A59U: 0.0402.
In the case of G32U A59C, the self-cleavage is 0.0899.
With A35C C66U the figure was 0.558.
The same measure for U33C G51C: 0.0825; for A35C A64U: 0.192.
With U33A G68C the figure was 0.138; with U33A G68A, 0.161.
A35C A71G: the self-cleavage amounted to 0.422.
With G34C U52G the figure was 0.379; with U33A G51U, 0.129.
The same measure for U33A G51A: 0.177; for G32C U67C: 0.105; for G34C U70C: 1.42.
The same measure for U33C C66U: 0.149; for U33G A36G: 0.0878.
Regarding A35C C48G, the self-cleavage is 0.131.
Consider G32U U67C, for which the self-cleavage is 0.0935.
Take G32C C66A: the self-cleavage is 0.0957.
With G34U A61C the figure was 1.2; with G34U A61G, 0.636.
With G32C U58C the figure was 0.0937; with G32U A61G, 0.0951; with G34C U58G, 1.09.
In the case of G34C U58A, the self-cleavage was determined as 1.27.
The same measure for G34U A41U: 1.53; for U33G A64U: 0.144; for U33G U52C: 0.145.
The same measure for U33G U52A: 0.17.
The same measure for G34C U55C: 1.19; for G34C C46A: 0.238.
G34C C46G: the self-cleavage turned out to be 0.0437.
With A35C C50G the figure was 0.37; with A35C C50U, 0.438.
The same measure for G32C G40U: 0.086; for G32C U70A: 0.0808; for G32C U52G: 0.125.
The same measure for G34A A43G: 0.0724; for G34A U55C: 0.487; for G32U A36C: 0.1.
Regarding G32U G56C, the self-cleavage came to 0.152.
G34C G54U: the self-cleavage is 1.19.
For U33C C65U, the self-cleavage was found to be 0.2.
G34U G57A: the self-cleavage is 0.887.
With G34U G57C the figure was 0.552; with G34A C65G, 0.477; with U33C A44G, 0.0547.
With U33C A44U the figure was 0.195.
The same measure for U33G C46A: 0.0768; for U33G C46U: 0.16; for G32C A64U: 0.159.
On to G32C A64G, for which the self-cleavage turned out to be 0.0936.
The same measure for G32C A64C: 0.183; for A35C U60A: 0.664.
Consider A35C U60C, for which the self-cleavage is 1.14.
For A35C U60G, the self-cleavage turned out to be 0.649.
With G34U A35C the figure was 1.2.
The same measure for G34U A35G: 1.47; for G32C G34C: 0.101.
With U33A U62C the figure was 0.184; with G34U G54A, 1.3.
With U33C C46A, the self-cleavage came to 0.0278.
As to G32C G56C, the self-cleavage was determined as 0.149.
The same measure for G32C G56A: 0.13; for A35C G68U: 0.226; for G32C G68U: 0.135.
G32C G68C: the self-cleavage is 0.112.
With A35C G69U, the self-cleavage amounted to 0.189.
Consider G32U C37A, for which the self-cleavage was 0.0811.
The same measure for G32U C37U: 0.161; for G32C G69A: 0.149; for A35C U62A: 0.226.
Take A35C U62C: the self-cleavage came out at 0.103.
The same measure for A35C U62G: 0.172; for U33C G69U: 0.0808; for U33G U53G: 0.211.
The same measure for U33G U53C: 0.204; for G34A C66A: 0.469; for U33G G42C: 0.166.
In the case of G34A C46U, the self-cleavage worked out at 0.135.
The same measure for U33A C50A: 0.18; for U33A C50U: 0.105.
For the variant G34U A71G, the self-cleavage came out at 1.58.
With G34U A71U the figure was 1.36; with U33A A59G, 0.106; with G34A A64U, 0.125.
The same measure for A35C U67G: 0.278; for G34A U58G: 1.36; for G34A U58A: 1.09.
With G34C A59C the figure was 0.145.
As for G34C A59U, the self-cleavage was determined as 0.202.
With U33G G51U the figure was 0.252.
With U33G G51C the figure was 0.202.
With G34A A35U the figure was 0.569; with U33G C48G, 0.209; with U33G C48U, 0.112.
Consider G32U A39U, for which the self-cleavage turned out to be 0.125.
With G32U U58C, the self-cleavage worked out at 0.116.
With G34A A61G the figure was 0.091.
With G34C C66A the figure was 0.693; with G34U C48U, 0.695.
The same measure for G32U A43C: 0.0806; for G32U A43G: 0.0636; for G34C G40U: 0.541.
For the variant G34C G51A, the self-cleavage was 1.61.
The same measure for G34C A61C: 0.733; for U33A A49U: 0.194; for G34C G42U: 1.19.
The same measure for G32U A45C: 0.153; for U33G G68A: 0.151; for U33G G68U: 0.0922.
Take U33C U53C: the self-cleavage was determined as 0.154.
The same measure for G32U U63G: 0.113; for G32U U63C: 0.268; for G34A U53G: 1.17.
With G34C U63A the figure was 0.293; with G34C U63G, 0.262; with G34C A64G, 0.792.
As for G34C A64U, the self-cleavage worked out at 0.442.
For the variant G32C G57A, the self-cleavage stood at 0.0977.
The same measure for G32C G57U: 0.072; for G32U G54A: 0.105; for G32U G54U: 0.0884.
With U33C A43C the figure was 0; with U33C A43U, 0.231; with G34A U60G, 1.
With G32C U33G the figure was 0.12.
G32C U33C: the self-cleavage stood at 0.0618.
G34U G56C: the self-cleavage amounted to 0.409.
As for G32C G54U, the self-cleavage came to 0.0594.
With G32C G54A the figure was 0.0613.
With U33A C37A the figure was 0.112.
With U33G G69A the figure was 0.0603; with U33G G69U, 0.123.
Turning to A35C G51C, the self-cleavage stood at 0.725.
With U33G A43G the figure was 0.282; with U33C C50A, 0.114.
The same measure for A35C C65A: 1.08; for A35C U63G: 0.286.
With G32U A64C the figure was 0.258.
For the variant G32U A64G, the self-cleavage came to 0.162.
With G32U A64U the figure was 0.126.
With G32C C48U the figure was 0.169; with U33A A45U, 0.2.
Regarding G34C A43G, the self-cleavage stood at 0.0982.
With G32U A44G the figure was 0.0996; with G34U G42A, 0.883; with G34A A49G, 0.754.
G34A A49C: the self-cleavage was 0.12.
The same measure for G34A C50U: 0.653; for U33G A39C: 0.149.
The same measure for U33A A35C: 0.0785; for U33G U55C: 0.117; for G32U U53A: 0.126.

Source of the values: the RNAGym collection of RNA variant scans (doi:10.7554/elife.80360).
